From patent US20160251438A1 (LUDWIG INSTITUTE FOR CANCER RESEARCH, published 2016) come the findings set out here.

Assay [1] concerns the target T1, chimera 141 / hTGF-β1 complex on the cell surface (Mus musculus, UniProt G3XA59).
T1 construct: N-terminal part
Nature of the assay: FACS, 293T, HA-tagged construct + hTGFB1.

Assay [2] addresses T2, chimera 332 / hTGF-β1 complex on the cell surface (Mus musculus, UniProt G3XA59).
T2 construct: N-terminal part
Nature of the assay: FACS, 293T, HA-tagged construct + hTGFB1. A general note: A flow cytometer gives signals particle by particle.

Assay [3] deals with T3, chimera 265 / hTGF-β1 complex on the cell surface (Mus musculus, UniProt G3XA59).
T3 construct: N-terminal part
Nature of the assay: FACS, 293T, HA-tagged construct + hTGFB1.

Assay [4] deals with T4, chimera 207 / hTGF-β1 complex on the cell surface (Mus musculus, UniProt G3XA59).
T4 construct: N-terminal part
Nature of the assay: FACS, 293T, HA-tagged construct + hTGFB1.

In assay [5] the target is GARP R163E/T165A / TGF-β1 complex (human, UniProt Q14392 20-662; P01137 30-390). Nature of the assay: flow cytometry on transfected 293T cells, 5 ug/ml; grade of Loss of binding read by footnote 2 (error bar crosses the 50% threshold). The text has this: (§1) Resolution of the crystal structure of MHG-8 Fab/GARP/TGF-β1 complexes and analysis with the CONTACT software allowed the identification of 22 amino-acids in GARP, 8 amino-acids in LAP and 6 amino-acids in mature TGF-β1 that are located less than 5 Å away from an amino-acid of the light or heavy chain of the MHG-8 Fab (Tables 7a, b and c, and Table 8). Directed mutagenesis was used to construct plasmids encoding HA-tagged forms of GARP or TGF-β1 that are mutated at one, two, or three of these 36 positions (all mutations constructed are indicated in Table 8). […] Antibodies were used at a saturating concentration of 5 μg/ml for labeling. Binding of each antibody to a given mutant GARP/TGF-β1 complex was compared to their binding to wild type (WT) complexes, by determining an I_{m/wt} value (i.e. intensity of binding to mutant by comparison to WT). This value was calculated as follows: I_{m/wt} of antibody X=[Geom on mutant−Geom on control]/[Geom on WT−Geom on control]
(§2) The level of residual binding of anti-GARP or anti-LAP antibodies to each mutant was then calculated by comparison to WT, taking into account the expression levels of mutant and WT forms as measured with anti-HA antibodies. Residual binding was calculated as follows: Residual binding by an anti-GARP or anti-LAP antibody=[I_{m/wt} with anti-GARP or anti-LAP antibody]/[I_{m/wt} with anti-HA antibody]

In assay [6] the target is T5, GARP / TGF-β1 Y336A complex (human, UniProt Q14392 20-662; P01137 30-390). Described as above.
T5 sequence (Q14392 20-662 limits assumed, chain 1 of 2): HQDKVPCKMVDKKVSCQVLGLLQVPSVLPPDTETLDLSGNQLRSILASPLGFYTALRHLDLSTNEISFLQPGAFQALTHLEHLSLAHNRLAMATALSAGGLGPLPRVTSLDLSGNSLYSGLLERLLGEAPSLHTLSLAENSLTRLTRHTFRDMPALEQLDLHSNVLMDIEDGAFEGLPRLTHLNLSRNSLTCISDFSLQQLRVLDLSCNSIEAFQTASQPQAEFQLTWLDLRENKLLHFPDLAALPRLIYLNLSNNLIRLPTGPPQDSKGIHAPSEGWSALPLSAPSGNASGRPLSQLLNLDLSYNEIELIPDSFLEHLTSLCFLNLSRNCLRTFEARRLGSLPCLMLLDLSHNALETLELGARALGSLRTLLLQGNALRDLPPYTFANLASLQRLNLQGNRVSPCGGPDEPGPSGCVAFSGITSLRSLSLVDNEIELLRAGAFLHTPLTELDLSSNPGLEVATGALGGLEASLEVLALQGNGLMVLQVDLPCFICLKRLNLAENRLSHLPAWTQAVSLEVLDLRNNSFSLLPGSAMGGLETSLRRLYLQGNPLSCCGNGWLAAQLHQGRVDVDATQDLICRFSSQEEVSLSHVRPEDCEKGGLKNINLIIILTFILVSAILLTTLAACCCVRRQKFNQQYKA
T5 sequence (P01137 30-390 Y336A limits assumed, chain 2 of 2): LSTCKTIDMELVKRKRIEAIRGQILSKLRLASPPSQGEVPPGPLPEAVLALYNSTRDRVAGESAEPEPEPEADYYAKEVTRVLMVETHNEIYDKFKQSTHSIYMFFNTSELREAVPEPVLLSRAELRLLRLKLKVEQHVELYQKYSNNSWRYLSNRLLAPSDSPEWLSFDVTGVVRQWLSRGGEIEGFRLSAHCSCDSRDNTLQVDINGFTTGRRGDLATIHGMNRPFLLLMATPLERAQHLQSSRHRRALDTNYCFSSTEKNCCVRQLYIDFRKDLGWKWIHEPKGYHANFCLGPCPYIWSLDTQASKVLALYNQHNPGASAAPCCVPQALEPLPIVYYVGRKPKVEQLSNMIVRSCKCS
Source text: as §1, §2

The target of assay [7] is T6, mGARP/hTGF-β1 complex on the cell surface (mouse; human, UniProt G3XA59 18-663).
T6 construct: whole, on cells; also called cells transfected with hTGFB1 and mGARP
Nature of the assay: FACS, 293T, HA-tagged mouse GARP + hTGFB1.

In assay [8] the target is GARP T162D / TGF-β1 complex (human, UniProt Q14392 20-662; P01137 30-390). Nature of the assay: FACS titration on transfected 293T; EC50 mutant / EC50 WT [cont.) B]. The method, then: (§3) Intensities of staining at each concentration of antibody relative to the maximal intensity measured at 5 μg/ml were determined as follows:
(§4) The relative staining intensities were plotted according to the concentration of antibody used for staining, and a non-linear regression analysis was used with the Prism software to determine an EC₅₀ value for binding of the antibody to the WT and to each of the various mutant GARP/TGF-β1 complexes. If the ratio between the EC₅₀ measured on the mutant and the EC₅₀ measured on the WT was >2, the mutation was considered to induce a reduced avidity for binding by the antibody. The ratio of EC₅₀ (mutant vs WT) for MHG-8 and LHG-10 are indicated below each mutation on FIG. 19, parts A and B, respectively.

Assay [9] concerns the target GARP / TGF-β1 E146R complex (human, UniProt Q14392 20-662; P01137 30-390). The assay is described as above. The method, then: as §3, §4
Assay [10] deals with GARP Y137H / TGF-β1 complex (human, UniProt Q14392 20-662; P01137 30-390). Described as above. The protocol: as §3, §4
Chain of GARP Y137H / TGF-β1 complex (Q14392 20-662 Y137H limits assumed, chain 1 of 2): as the sequence (Q14392 20-662 limits assumed, chain 1 of 2) above, with Y118H counted along it
Chain of GARP Y137H / TGF-β1 complex (P01137 30-390 limits assumed, chain 2 of 2): as the sequence (P01137 30-390 Y336A limits assumed, chain 2 of 2) above, with A307Y counted along it
Assay [11] concerns the target GARP / TGF-β1 R58A complex (human, UniProt Q14392 20-662; P01137 30-390). Described as above. The method, then: as §3, §4
The target of assay [12] is T5, GARP / TGF-β1 Y336A complex. Described as above. The method, then:
as §3, §4

Assay [13] addresses GARP L140K/E142L / TGF-β1 complex (human, UniProt Q14392 20-662; P01137 30-390). The assay is described as above. The protocol:
as §3, §4

The target of assay [14] is GARP R163E / TGF-β1 complex (human, UniProt Q14392 20-662; P01137 30-390). Described as above. The protocol: as §3, §4
Chain of GARP R163E / TGF-β1 complex (Q14392 20-662 R163E limits assumed, chain 1 of 2): as the sequence (Q14392 20-662 limits assumed, chain 1 of 2) above, with R144E counted along it
Chain of GARP R163E / TGF-β1 complex (P01137 30-390 limits assumed, chain 2 of 2): as the sequence (P01137 30-390 Y336A limits assumed, chain 2 of 2) above, with A307Y counted along it
Assay [15] addresses GARP / TGF-β1 S337A complex (human, UniProt Q14392 20-662; P01137 30-390). The description is as above. The protocol:
as §3, §4

Assay [16] addresses GARP / TGF-β1 Y284A complex (human, UniProt Q14392 20-662; P01137 30-390). Described as above. The protocol: as §3, §4

Chain of GARP L140K/E142L / TGF-β1 complex (Q14392 20-662 L140K/E142L limits assumed, chain 1 of 2): as the sequence (Q14392 20-662 limits assumed, chain 1 of 2) above, with L121K, E123L counted along it
Chain of GARP L140K/E142L / TGF-β1 complex (P01137 30-390 limits assumed, stated change not applied, chain 2 of 2): as the sequence (P01137 30-390 Y336A limits assumed, chain 2 of 2) above, with A307Y counted along it

B1: LHG-10 (antibody, human IgG1, V domains shown)
VH: EVQLVQPGAELRNSGASVKVSCKASGYRFTSYYIDWVRQAPGQGLEWMGRIDPEDGGTKYAQKFQGRVTFTADTSTSTAYVELSSLRSEDTAVYYCARNEWETVVVGDLMYEYEYWGQGTQVTVSS
VL: DIQMTQSPTSLSASLGDRVTITCQASQSISSYLAWYQQKPGQAPKLLIYGASRLQTGVPSRFSGSGSGTSFTLTISGLEAEDAGTYYCQQYDSLPVTFGQGTKVELK
notes: llama-derived V regions in a full human IgG1
Regarding B1, the binding result in [1], in assay [2], in assay [3], in assay [4] and in assay [7] was “no binding” each time. Also, the “residual binding on mutant by comparison to WT” value in assay [5] and in assay [6] was at least 50% in each case. The “Ratio of EC50 (mutant / wt)” value in assay [8] worked out at 2.5; in [9] it was 0.8; in assay [10] it was 0.6; in assay [11], 1.5; in assay [12] it was 1.9; in assay [13], 0.7. Also, the “Ratio of EC50 (mutant / wt)” value in assay [14] amounted to 4.1; in assay [15], 1.4; in assay [16] it was 1.9.
